Target: T1, PD-L1-Fc (UniProt Q9NZQ7 19-238, limits assumed)
T1 construct: extracellular domain; not shown: Fc fragment of human IgG
Test: SPR (Biacore), antibody captured by anti-human Fab on CM5 chip, PD-L1-Fc as analyte, 1:1 binding fit

T1 sequence (Q9NZQ7 19-238 limits assumed): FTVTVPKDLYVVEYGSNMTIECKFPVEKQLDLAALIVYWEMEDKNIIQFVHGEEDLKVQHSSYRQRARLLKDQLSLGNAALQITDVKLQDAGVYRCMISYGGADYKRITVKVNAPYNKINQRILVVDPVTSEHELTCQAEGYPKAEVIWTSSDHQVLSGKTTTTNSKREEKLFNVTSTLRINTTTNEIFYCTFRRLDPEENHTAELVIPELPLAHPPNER

Kd: 0.429 nM
koff: 0.000195 s⁻¹
kon: 457000 M⁻¹ s⁻¹
B1: Mil85-6抗体 (antibody, V domains shown)
VH: EVQLVESGGGLVQPGGSLRLSCAASGFTFADSWIHWVRQAPGKGLEWVAWISPFGGSNYYADSVKGRFTISADTSKNTAYLQMNSLRAEDTAVYYCARRHWPGGFDYWGQGTLVTVSS
VL: DIQMTQSPSSLSASVGDRVTITCRASQSIGTALNWYQQKPGKAPKLLIYTASSLQSGVPSRFSGSGSGTDFTLTISSLQPEDFATYYCQQDNYTPMTFGQGTKVEIK
notes: also called Mil85-6-5C6; 全抗体

— patent CN106699891A (BEIJING MABWORKS BIOTECH CO LTD, dated 2017)
